In article PMC11894413, “The conformational landscape of TRiC ring-opening and its underlying stepwise mechanism revealed by cryo-EM” (QRB Discovery, 2024):

B1: CCT2 subunit of yeast TRiC/CCT (natural protein, UniProt P39076 1-527, looked up)
chain: MSVQIFGDQVTEERAENARLSAFVGAIAVGDLVKSTLGPKGMDKLLQSASSNTCMVTNDGATILKSIPLDNPAAKVLVNISKVQDDEVGDGTTSVTVLSAELLREAEKLIDQSKIHPQTIIEGYRLASAAALDALTKAAVDNSHDKTMFREDLIHIAKTTLSSKILSQDKDHFAELATNAILRLKGSTNLEHIQIIKILGGKLSDSFLDEGFILAKKFGNNQPKRIENAKILIANTTLDTDKVKIFGTKFKVDSTAKLAQLEKAEREKMKNKIAKISKFGINTFINRQLIYDYPEQLFTDLGINSIEHADFEGVERLALVTGGEVVSTFDEPSKCKLGECDVIEEIMLGEQPFLKFSGCKAGEACTIVLRGATDQTLDEAERSLHDALSVLSQTTKETRTVLGGGCAEMVMSKAVDTEAQNIDGKKSLAVEAFARALRQLPTILADNAGFDSSELVSKLRSSIYNGISTSGLDLNNGTIADMRQLGIVESYKLKRAVVSSASEAAEVLLRVDNIIRARPRTANRQHM
notes: CCT2 subunit of the chaperonin TRiC/CCT, yeast; subunit of the purified hetero-oligomeric complex; Purified according to Zang et al., 2016; source: endogenous, purified from yeast lysate as part of TRiC (calmodulin resin, eluted with 2 mM EGTA)
B2: CCT6 subunit of yeast TRiC/CCT (natural protein)
chain: not shown
notes: CCT6 subunit of the chaperonin TRiC/CCT, yeast; subunit of the purified hetero-oligomeric complex; Purified according to Zang et al., 2016; source: endogenous, purified from yeast lysate as part of TRiC (calmodulin resin, eluted with 2 mM EGTA)

Columns and labels:
[1] = target: T1, CCT4 subunit of yeast TRiC/CCT (yeast, UniProt P39078 1-528); assay: cryo-EM structure; purified yeast TRiC, 1 mg/ml, with 1 mM ADP and 5 mM MgCl2, 15 min at 30 °C before freezing; five conformational states S1-S5 (closed to open) from one sample; contacts differ between the states; details: both partners purified
T1 construct: CCT4 subunit of the chaperonin TRiC/CCT, yeast; subunit of the purified hetero-oligomeric complex; Purified according to Zang et al., 2016; source: endogenous, purified from yeast lysate as part of TRiC (calmodulin resin, eluted with 2 mM EGTA)

[2] = target: the molecule itself; assay: as above

T1 sequence (P39078 whole entry): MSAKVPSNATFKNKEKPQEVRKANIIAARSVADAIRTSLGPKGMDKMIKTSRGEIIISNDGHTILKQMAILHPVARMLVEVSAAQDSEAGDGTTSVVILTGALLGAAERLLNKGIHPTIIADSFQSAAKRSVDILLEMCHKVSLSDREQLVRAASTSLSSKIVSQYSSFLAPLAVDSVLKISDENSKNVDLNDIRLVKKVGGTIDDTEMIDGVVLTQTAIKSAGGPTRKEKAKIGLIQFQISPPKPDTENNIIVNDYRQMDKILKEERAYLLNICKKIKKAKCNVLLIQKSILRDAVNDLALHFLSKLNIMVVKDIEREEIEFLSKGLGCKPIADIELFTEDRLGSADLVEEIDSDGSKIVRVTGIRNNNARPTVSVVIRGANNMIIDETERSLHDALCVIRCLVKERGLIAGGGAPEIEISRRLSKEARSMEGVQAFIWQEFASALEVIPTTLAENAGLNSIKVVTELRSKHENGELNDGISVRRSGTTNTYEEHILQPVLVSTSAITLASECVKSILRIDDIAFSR

Row | Binder | binding result [1] | binding result [2]
1 | B1 | binds | binds
2 | B2 |  | binds
